No end group written: not given here.
Legend:
[1] = target: endothelial cell receptor on HAEC (human aortic endothelial cells); assay: competition against 1% DPPE-GTKPPR microbubbles (competitor) on HAEC, static
[2] = target: endothelial cell receptor on HAEC (human aortic endothelial cells); assay: competition against 5% DPPE-GTKPPR microbubbles (competitor) on HAEC, static
[3] = target: endothelial cell receptor on HAEC (human aortic endothelial cells); assay: competition, 25 µM free TKPPR against TKPPR-beads (competitor) on HAEC, static, n = 11
[4] = target: endothelial cell receptor on HAEC (human aortic endothelial cells); assay: competition, 100 µM free TKPPR against TKPPR-beads (competitor) on HAEC, static, n = 11
[5] = target: endothelial cell receptor on HAEC (human aortic endothelial cells); assay: competition, 5 µM free TKPPR against 1% BRU-114 microbubbles (competitor) on HAEC, static
[6] = target: endothelial cell receptor on HAEC (human aortic endothelial cells); assay: competition, 10 µM free TKPPR against 1% BRU-114 microbubbles (competitor) on HAEC, static
[7] = target: endothelial cell receptor on HAEC (human aortic endothelial cells); assay: competition, 10 µM free TKPPR against 5% BRU-114 microbubbles (competitor) on HAEC, static
[8] = target: endothelial cell receptor on HAEC (human aortic endothelial cells); assay: competition, 25 µM free TKPPR against 2% BRU-114 microbubbles (competitor) on HAEC, static
[9] = target: endothelial cell receptor on HAEC (human aortic endothelial cells); assay: competition, 10 µM free TKPPR against 1% BRU-114 microbubbles (competitor) on HAEC, static; remark: listed apart in the source
[10] = target: endothelial cell receptor on HAEC (human aortic endothelial cells); assay: competition, 50 µM free TKPPR against 1% BRU-114 microbubbles (competitor) on HAEC, static
[11] = target: endothelial cell receptor on HAEC (human aortic endothelial cells); assay: competition, 10 µM free TKPPR against 1% BRU-114 microbubbles (competitor) on HAEC, static; remark: listed apart in the source
[12] = target: endothelial cell receptor on HAEC (human aortic endothelial cells); assay: competition, 10 µM free TKPPR against 1% BRU-292 microbubbles (competitor) on HAEC, static
[13] = target: endothelial cell receptor on HAEC (human aortic endothelial cells); assay: competition, 25 µM free TKPPR against 1% BRU-114 microbubbles (competitor) on HAEC, static
[14] = target: endothelial cell receptor on HAEC (human aortic endothelial cells); assay: competition, 50 µM free TKPPR against 1% BRU-292 microbubbles (competitor) on HAEC, static
[15] = target: endothelial cell receptor on HAEC (human aortic endothelial cells); assay: competition, 10 µM free TKPPR against 10% BRU-114 microbubbles (competitor) on HAEC, static
[16] = target: endothelial cell receptor on HAEC (human aortic endothelial cells); assay: competition, 100 µM free TKPPR against 1% BRU-114 microbubbles (competitor) on HAEC, static
[17] = target: endothelial cell receptor on HAEC (human aortic endothelial cells); assay: competition, 200 µM free TKPPR against 1% BRU-114 microbubbles (competitor) on HAEC, static
[18] = target: endothelial cell receptor on HAEC (human aortic endothelial cells); assay: competition, 200 µM free TKPPR against 5% BRU-114 microbubbles (competitor) on HAEC, static
[19] = target: endothelial cell receptor on HAEC (human aortic endothelial cells); assay: competition, 50 µM free TKPPR against 10% BRU-114 microbubbles (competitor) on HAEC, static
[20] = target: endothelial cell receptor on HAEC (human aortic endothelial cells); assay: competition, 2.5 µM free TKPPR against 1% BRU-114 microbubbles (competitor) on HAEC, static
[21] = target: endothelial cell receptor on HAEC (human aortic endothelial cells); assay: competition, 2.5 µM free TKPPR against 1% BRU-292 microbubbles (competitor) on HAEC, static
[22] = target: endothelial cell receptor on HAEC (human aortic endothelial cells); assay: competition, 100 µM free TKPPR against 10% BRU-114 microbubbles (competitor) on HAEC, static
[23] = target: endothelial cell receptor on HAEC (human aortic endothelial cells); assay: competition, 200 µM free TKPPR against 10% BRU-114 microbubbles (competitor) on HAEC, static
[24] = target: endothelial cell receptor on HAEC (human aortic endothelial cells); assay: competition, 5 µM free TKPPR against 1% DPPE-GTKPPR microbubbles (competitor) on HAEC, static
[25] = target: endothelial cell receptor on HAEC (human aortic endothelial cells); assay: competition, 10 µM free TKPPR against 1% DPPE-GTKPPR microbubbles (competitor) on HAEC, static
[26] = target: endothelial cell receptor on HAEC (human aortic endothelial cells); assay: competition, 25 µM free TKPPR against 1% DPPE-GTKPPR microbubbles (competitor) on HAEC, static
[27] = target: endothelial cell receptor on HAEC (human aortic endothelial cells); assay: competition, 50 µM free TKPPR against 1% DPPE-GTKPPR microbubbles (competitor) on HAEC, static
[28] = target: endothelial cell receptor on HAEC (human aortic endothelial cells); assay: competition, 100 µM free TKPPR against 1% DPPE-GTKPPR microbubbles (competitor) on HAEC, static
[29] = target: endothelial cell receptor on HAEC (human aortic endothelial cells); assay: competition, 100 µM free TKPPR against 5% DPPE-GTKPPR microbubbles (competitor) on HAEC, static
[30] = target: endothelial cell receptor on RAEC (rabbit aortic endothelial cells); assay: competition, 100 µM free TKPPR against 5% DPPE-GTKPPR microbubbles (competitor) on RAEC, static
[31] = target: endothelial cell receptor on HAEC (human aortic endothelial cells); assay: competition, free TKPPR 10 µM (head prints 10 µmol) against 1% DPPE-GTKPPR microbubbles (competitor) on HAEC, static
[32] = target: endothelial cell receptor on HAEC (human aortic endothelial cells); assay: competition, free TKPPR 10 µM (head prints 10 µmol) against 5% DPPE-GTKPPR microbubbles (competitor) on HAEC, static
[33] = target: endothelial cell receptor on HAEC (human aortic endothelial cells); assay: competition, free TKPPR 100 µM (head prints 100 µmol) against 1% DPPE-GTKPPR microbubbles (competitor) on HAEC, static

TKPPR-OH [TKPPR-OH (L-threonyl-L-lysyl-L-prolyl-L-prolyl-L-arginine)]
% inhibition of bubble binding [1]: 82.7%
% more bubbles bound [2]: 19%
% Inhibition [3]: 50.7%
% Inhibition [4]: 62%
Bubbles Bound in presence of competitor [5]: 790 bubbles
Bubbles Bound in presence of competitor [6]: 10 bubbles
Bubbles Bound in presence of competitor [7]: 1340 bubbles
Bubbles Bound % (of control binding) [8]: 16 % of control
Bubbles Bound in presence of competitor [9]: 528 bubbles
Bubbles Bound in presence of competitor [10]: 56 bubbles
Bubbles Bound in presence of competitor [11]: 535 bubbles
Bubbles Bound in presence of competitor [12]: 833 bubbles
Bubbles Bound in presence of competitor [13]: 75 bubbles
Bubbles Bound in presence of competitor [14]: 462 bubbles
Bubbles Bound in presence of competitor [15]: 1090 bubbles
Bubbles Bound in presence of competitor [16]: 4 bubbles
Bubbles Bound in presence of competitor [17]: 4 bubbles
Bubbles Bound in presence of competitor [18]: 13 bubbles
Bubbles Bound in presence of competitor [19]: 857 bubbles
Bubbles Bound in presence of competitor [20]: 1240 bubbles
Bubbles Bound in presence of competitor [21]: 888 bubbles
Bubbles Bound in presence of competitor [22]: 399 bubbles
Bubbles Bound in presence of competitor [23]: 66 bubbles
Average % Inhibition [24]: 45.7%
Average % Inhibition [25]: 79.6%
Average % Inhibition [26]: 82%
Average % Inhibition [27]: 92.7%
Average % Inhibition [28]: 93.7%
HAEC bubbles bound in presence of competitor [29]: 58 bubbles
RAEC bubbles bound in presence of competitor [30]: 21 bubbles
Bubbles Bound in presence of competitor [31]: 96 bubbles
Bubbles Bound in presence of competitor [32]: 865 bubbles
Bubbles Bound in presence of competitor [33]: 5 bubbles

— patent US20110262366A1
